Measured values from patent publication US20190263932A1.

Biological target: human TrkA receptor expressed in transfected 3T3 fibroblast cells (human), P04629
Assay: cell-based or functional assay

Sequence of human TrkA receptor expressed in transfected 3T3 fibroblast cells (human), P04629 (P04629 33-796): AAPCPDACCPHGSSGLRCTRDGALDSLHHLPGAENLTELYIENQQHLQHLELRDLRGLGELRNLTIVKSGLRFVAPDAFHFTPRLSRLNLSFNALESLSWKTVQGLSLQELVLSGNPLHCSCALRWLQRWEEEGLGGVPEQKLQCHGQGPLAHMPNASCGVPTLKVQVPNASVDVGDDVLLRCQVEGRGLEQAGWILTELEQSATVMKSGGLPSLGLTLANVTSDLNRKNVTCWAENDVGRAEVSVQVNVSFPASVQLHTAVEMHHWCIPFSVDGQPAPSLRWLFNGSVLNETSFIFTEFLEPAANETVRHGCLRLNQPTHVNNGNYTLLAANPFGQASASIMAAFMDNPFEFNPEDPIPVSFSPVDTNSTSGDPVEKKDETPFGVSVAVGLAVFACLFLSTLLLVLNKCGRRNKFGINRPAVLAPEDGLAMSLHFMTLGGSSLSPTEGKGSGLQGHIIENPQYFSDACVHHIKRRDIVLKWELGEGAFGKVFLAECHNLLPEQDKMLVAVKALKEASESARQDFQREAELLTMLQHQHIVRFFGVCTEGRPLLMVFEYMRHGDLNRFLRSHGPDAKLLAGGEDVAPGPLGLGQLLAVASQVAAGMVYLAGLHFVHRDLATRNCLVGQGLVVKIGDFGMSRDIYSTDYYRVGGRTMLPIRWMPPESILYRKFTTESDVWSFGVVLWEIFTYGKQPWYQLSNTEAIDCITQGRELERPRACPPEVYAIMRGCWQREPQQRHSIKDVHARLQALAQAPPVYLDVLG

| Binder | % Max Inhibition, pTrkA | % Max stimulation, pTrkA | EC50 (nM), pTrkA | IC50 (nM), pTrkA | pTrkA counts per second, 0.1 pM mAb, no NGF (counts per second) | pTrkA counts per second, 1 pM mAb, no NGF (counts per second) | pTrkA counts per second, 10 pM mAb, no NGF (counts per second) | pTrkA counts per second, 100 pM mAb, no NGF (counts per second) | pTrkA counts per second, 1 nM mAb, no NGF (counts per second) | pTrkA counts per second, 10 nM mAb, no NGF (counts per second) | pTrkA counts per second, 100 nM mAb, no NGF (counts per second) | pTrkA counts per second, 1 uM mAb, no NGF (counts per second) | pTrkA counts per second, NGF +0.1 pM mAb (counts per second) | pTrkA counts per second, NGF +1 pM mAb (counts per second) | pTrkA counts per second, NGF +10 pM mAb (counts per second) | pTrkA counts per second, NGF +100 pM mAb (counts per second) | pTrkA counts per second, NGF +1 nM mAb (counts per second) | pTrkA counts per second, NGF +10 nM mAb (counts per second) | pTrkA counts per second, NGF +100 nM mAb (counts per second) | pTrkA counts per second, NGF +1 uM mAb (counts per second) | other results |
| --- | --- | --- | --- | --- | --- | --- | --- | --- | --- | --- | --- | --- | --- | --- | --- | --- | --- | --- | --- | --- | --- |
| mAb D (antibody, human IgG1, kappa) heavy: EVQLVESGGGLVKPGGSLRLSCAASGFTFSGVSINWVRQAPGKGLEWVSSETTSSGTIYYADSVKGRFTISRDNAKNSLYLQMNSLRAEDTAVYYCARSYYYGMDVWGQGTTVTVSSASTKGPSVFPLAPSSKSTSGGTAALGCLVKDYFPEPVTVSWNSGALTSGVHTFPAVLQSSGLYSLSSVVTVPSSSLGTQTYICNVNHKPSNTKVDKRVEPKSCDKTHTCPPCPAPEAEGAPSVFLFPPKPKDTLMISRTPEVTCVVVDVSHEDPEVKFNWYVDGVEVHNAKTKPREEQYNSTYRVVSVLTVLHQDWLNGKEYKCKVSNKALPSSIEKTISKAKGQPREPQVYTLPPSREEMTKNQVSLTCLVKGFYPSDIAVEWESNGQPENNYKTTPPVLDSDGSFFLYSKLTVDKSRWQQGNVFSCSVMHEALHNHYTQKSLSLSPGK light: DIVMTQTPLSSPVTLGQPASISCRSSQSLVHRAGNTYLSWLQQRPGQPPRLLIYKISNRFSGVPDRFSGSGAGTDFTLKISRVEAEDVGVYYCMQARQFPLTFGGGTKVEIKRTVAAPSVFIFPPSDEQLKSGTASVVCLLNNFYPREAKVQWKVDNALQSGNSQESVTEQDSKDSTYSLSSTLTLSKADYEKHKVYACEVTHQGLSSPVTKSFNRGEC | 66% | 27% | 0.28 nM | 0.12 nM | 277000 | 398000 | 335000 | 486000 | 935000 | 1.16e+06 | 994000 | 1.02e+06 | 2.56e+06 | 2.79e+06 | 2.68e+06 | 2.01e+06 | 1.35e+06 | 1.2e+06 | 1.44e+06 | 971000 | – |
| mAb E (antibody, human IgG1, kappa) heavy: EVQLVESGGGLVKPGGSLRLSCAASGFTFSGVSINWVRQAPGKGLEWVSSETTSSGTIYYADSVKGRFTISRDNAKNSLYLQMNSLRAEDTAVYYCARSYYYGMDVWGQGTTVTVSSASTKGPSVFPLAPSSKSTSGGTAALGCLVKDYFPEPVTVSWNSGALTSGVHTFPAVLQSSGLYSLSSVVTVPSSSLGTQTYICNVNHKPSNTKVDKRVEPKSCDKTHTCPPCPAPEAEGAPSVFLFPPKPKDTLMISRTPEVTCVVVDVSHEDPEVKFNWYVDGVEVHNAKTKPREEQYNSTYRVVSVLTVLHQDWLNGKEYKCKVSNKALPSSIEKTISKAKGQPREPQVYTLPPSREEMTKNQVSLTCLVKGFYPSDIAVEWESNGQPENNYKTTPPVLDSDGSFFLYSKLTVDKSRWQQGNVFSCSVMHEALHNHYTQKSLSLSPGK light: DIVMTQTPLSSPVTLGQPASISCRSSQSLVHRQGNTYLSWLQQRPGQPPRLLIYKISNRFSGVPDRFSGSGAGTDFTLKISRVEAEDVGVYYCMQARQFPLTFGGGTKVEIKRTVAAPSVFIFPPSDEQLKSGTASVVCLLNNFYPREAKVQWKVDNALQSGNSQESVTEQDSKDSTYSLSSTLTLSKADYEKHKVYACEVTHQGLSSPVTKSFNRGEC | 57% | 31% | 0.29 nM | 0.48 nM | 178000 | 181000 | 194000 | 264000 | 487000 | 600000 | 605000 | 483000 | 1.85e+06 | 2.19e+06 | 2.76e+06 | 2.78e+06 | 838000 | 800000 | 739000 | 630000 | % Inh., Human pTrkA: 56% |
